According to patent US20260295010 (published 2026):

Target: IL-12RB1-hFc (human, UniProt P42701)
Assay: SPR, 25C

Row | Binder | Kd [nM]
1 | IL-12p70 D162A (protein) chain 1: MIWELKKDVYVVELDWYPDAPGEMVVLTCDTPEEDGITWTLDQSSEVLGSGKTLTIQVKEFGDAGQYTCHKGGEVLSHSLLLLHKKEDGIWSTDILKDQKEPKNKTFLRCEAKNYSGRFTCWWLTTISTDLTFSVKSSRGSSDPQGVTCGAATLSAERVRGANKEYEYSVECQEDSACPAAEESLPIEVMVDAVHKLKYENYTSSFFIRDIIKPDPPKNLQLKPLKNSRQVEVSWEYPDTWSTPHSYFSLTFSVQVQGKSKREKKDRVFTDKTSATVICRKNASISVRAQDRYYSSSWSEWASVPCSGGGSHHHHHH chain 2: MRNLPVATPDPGMFPSLHHSQNLLRAVSNMLQKARQTLEFYPCTSEEIDHEDITKDKTSTVEACLPLELTKNESCLNSRETSFITNGSSLASRKTSFMMALCLSSIYEDLKMYQVEFKTMNAKLLMDPKRQIFLDQNMLAVIDELMQALNFNSETVPQKSSLEEPDFYKTKIKLCILLHAFRIRAVTIDRVMSYLNAS | 0.05
2 | IL-12p70 D162K (protein) chain 1: MIWELKKDVYVVELDWYPDAPGEMVVLTCDTPEEDGITWTLDQSSEVLGSGKTLTIQVKEFGDAGQYTCHKGGEVLSHSLLLLHKKEDGIWSTDILKDQKEPKNKTFLRCEAKNYSGRFTCWWLTTISTDLTFSVKSSRGSSDPQGVTCGAATLSAERVRGKNKEYEYSVECQEDSACPAAEESLPIEVMVDAVHKLKYENYTSSFFIRDIIKPDPPKNLQLKPLKNSRQVEVSWEYPDTWSTPHSYFSLTFSVQVQGKSKREKKDRVFTDKTSATVICRKNASISVRAQDRYYSSSWSEWASVPCSGGGSHHHHHH chain 2: MRNLPVATPDPGMFPSLHHSQNLLRAVSNMLQKARQTLEFYPCTSEEIDHEDITKDKTSTVEACLPLELTKNESCLNSRETSFITNGSSLASRKTSFMMALCLSSIYEDLKMYQVEFKTMNAKLLMDPKRQIFLDQNMLAVIDELMQALNFNSETVPQKSSLEEPDFYKTKIKLCILLHAFRIRAVTIDRVMSYLNAS | 0.07
3 | IL-12p70 S45A (protein) chain 1: MIWELKKDVYVVELDWYPDAPGEMVVLTCDTPEEDGITWTLDQSAEVLGSGKTLTIQVKEFGDAGQYTCHKGGEVLSHSLLLLHKKEDGIWSTDILKDQKEPKNKTFLRCEAKNYSGRFTCWWLTTISTDLTFSVKSSRGSSDPQGVTCGAATLSAERVRGDNKEYEYSVECQEDSACPAAEESLPIEVMVDAVHKLKYENYTSSFFIRDIIKPDPPKNLQLKPLKNSRQVEVSWEYPDTWSTPHSYFSLTFSVQVQGKSKREKKDRVFTDKTSATVICRKNASISVRAQDRYYSSSWSEWASVPCSGGGSHHHHHH chain 2: MRNLPVATPDPGMFPSLHHSQNLLRAVSNMLQKARQTLEFYPCTSEEIDHEDITKDKTSTVEACLPLELTKNESCLNSRETSFITNGSSLASRKTSFMMALCLSSIYEDLKMYQVEFKTMNAKLLMDPKRQIFLDQNMLAVIDELMQALNFNSETVPQKSSLEEPDFYKTKIKLCILLHAFRIRAVTIDRVMSYLNAS | 0.04
4 | IL-12p70 E87K (protein) chain 1: MIWELKKDVYVVELDWYPDAPGEMVVLTCDTPEEDGITWTLDQSSEVLGSGKTLTIQVKEFGDAGQYTCHKGGEVLSHSLLLLHKKKDGIWSTDILKDQKEPKNKTFLRCEAKNYSGRFTCWWLTTISTDLTFSVKSSRGSSDPQGVTCGAATLSAERVRGDNKEYEYSVECQEDSACPAAEESLPIEVMVDAVHKLKYENYTSSFFIRDIIKPDPPKNLQLKPLKNSRQVEVSWEYPDTWSTPHSYFSLTFSVQVQGKSKREKKDRVFTDKTSATVICRKNASISVRAQDRYYSSSWSEWASVPCSGGGSHHHHHH chain 2: MRNLPVATPDPGMFPSLHHSQNLLRAVSNMLQKARQTLEFYPCTSEEIDHEDITKDKTSTVEACLPLELTKNESCLNSRETSFITNGSSLASRKTSFMMALCLSSIYEDLKMYQVEFKTMNAKLLMDPKRQIFLDQNMLAVIDELMQALNFNSETVPQKSSLEEPDFYKTKIKLCILLHAFRIRAVTIDRVMSYLNAS | 0.11
5 | IL-12p70 I278Y (protein) chain 1: MIWELKKDVYVVELDWYPDAPGEMVVLTCDTPEEDGITWTLDQSSEVLGSGKTLTIQVKEFGDAGQYTCHKGGEVLSHSLLLLHKKEDGIWSTDILKDQKEPKNKTFLRCEAKNYSGRFTCWWLTTISTDLTFSVKSSRGSSDPQGVTCGAATLSAERVRGDNKEYEYSVECQEDSACPAAEESLPIEVMVDAVHKLKYENYTSSFFIRDIIKPDPPKNLQLKPLKNSRQVEVSWEYPDTWSTPHSYFSLTFSVQVQGKSKREKKDRVFTDKTSATVYCRKNASISVRAQDRYYSSSWSEWASVPCSGGGSHHHHHH chain 2: MRNLPVATPDPGMFPSLHHSQNLLRAVSNMLQKARQTLEFYPCTSEEIDHEDITKDKTSTVEACLPLELTKNESCLNSRETSFITNGSSLASRKTSFMMALCLSSIYEDLKMYQVEFKTMNAKLLMDPKRQIFLDQNMLAVIDELMQALNFNSETVPQKSSLEEPDFYKTKIKLCILLHAFRIRAVTIDRVMSYLNAS | 0.04
6 | IL-12p70 E46A (protein) chain 1: MIWELKKDVYVVELDWYPDAPGEMVVLTCDTPEEDGITWTLDQSSAVLGSGKTLTIQVKEFGDAGQYTCHKGGEVLSHSLLLLHKKEDGIWSTDILKDQKEPKNKTFLRCEAKNYSGRFTCWWLTTISTDLTFSVKSSRGSSDPQGVTCGAATLSAERVRGDNKEYEYSVECQEDSACPAAEESLPIEVMVDAVHKLKYENYTSSFFIRDIIKPDPPKNLQLKPLKNSRQVEVSWEYPDTWSTPHSYFSLTFSVQVQGKSKREKKDRVFTDKTSATVICRKNASISVRAQDRYYSSSWSEWASVPCSGGGSHHHHHH chain 2: MRNLPVATPDPGMFPSLHHSQNLLRAVSNMLQKARQTLEFYPCTSEEIDHEDITKDKTSTVEACLPLELTKNESCLNSRETSFITNGSSLASRKTSFMMALCLSSIYEDLKMYQVEFKTMNAKLLMDPKRQIFLDQNMLAVIDELMQALNFNSETVPQKSSLEEPDFYKTKIKLCILLHAFRIRAVTIDRVMSYLNAS | 0.06
7 | IL-12p70 S44A (protein) chain 1: MIWELKKDVYVVELDWYPDAPGEMVVLTCDTPEEDGITWTLDQASEVLGSGKTLTIQVKEFGDAGQYTCHKGGEVLSHSLLLLHKKEDGIWSTDILKDQKEPKNKTFLRCEAKNYSGRFTCWWLTTISTDLTFSVKSSRGSSDPQGVTCGAATLSAERVRGDNKEYEYSVECQEDSACPAAEESLPIEVMVDAVHKLKYENYTSSFFIRDIIKPDPPKNLQLKPLKNSRQVEVSWEYPDTWSTPHSYFSLTFSVQVQGKSKREKKDRVFTDKTSATVICRKNASISVRAQDRYYSSSWSEWASVPCSGGGSHHHHHH chain 2: MRNLPVATPDPGMFPSLHHSQNLLRAVSNMLQKARQTLEFYPCTSEEIDHEDITKDKTSTVEACLPLELTKNESCLNSRETSFITNGSSLASRKTSFMMALCLSSIYEDLKMYQVEFKTMNAKLLMDPKRQIFLDQNMLAVIDELMQALNFNSETVPQKSSLEEPDFYKTKIKLCILLHAFRIRAVTIDRVMSYLNAS | 0.05
8 | IL-12p70 Q43A (protein) chain 1: MIWELKKDVYVVELDWYPDAPGEMVVLTCDTPEEDGITWTLDASSEVLGSGKTLTIQVKEFGDAGQYTCHKGGEVLSHSLLLLHKKEDGIWSTDILKDQKEPKNKTFLRCEAKNYSGRFTCWWLTTISTDLTFSVKSSRGSSDPQGVTCGAATLSAERVRGDNKEYEYSVECQEDSACPAAEESLPIEVMVDAVHKLKYENYTSSFFIRDIIKPDPPKNLQLKPLKNSRQVEVSWEYPDTWSTPHSYFSLTFSVQVQGKSKREKKDRVFTDKTSATVICRKNASISVRAQDRYYSSSWSEWASVPCSGGGSHHHHHH chain 2: MRNLPVATPDPGMFPSLHHSQNLLRAVSNMLQKARQTLEFYPCTSEEIDHEDITKDKTSTVEACLPLELTKNESCLNSRETSFITNGSSLASRKTSFMMALCLSSIYEDLKMYQVEFKTMNAKLLMDPKRQIFLDQNMLAVIDELMQALNFNSETVPQKSSLEEPDFYKTKIKLCILLHAFRIRAVTIDRVMSYLNAS | 0.03
9 | IL-12p70 E87A (protein) chain 1: MIWELKKDVYVVELDWYPDAPGEMVVLTCDTPEEDGITWTLDQSSEVLGSGKTLTIQVKEFGDAGQYTCHKGGEVLSHSLLLLHKKADGIWSTDILKDQKEPKNKTFLRCEAKNYSGRFTCWWLTTISTDLTFSVKSSRGSSDPQGVTCGAATLSAERVRGDNKEYEYSVECQEDSACPAAEESLPIEVMVDAVHKLKYENYTSSFFIRDIIKPDPPKNLQLKPLKNSRQVEVSWEYPDTWSTPHSYFSLTFSVQVQGKSKREKKDRVFTDKTSATVICRKNASISVRAQDRYYSSSWSEWASVPCSGGGSHHHHHH chain 2: MRNLPVATPDPGMFPSLHHSQNLLRAVSNMLQKARQTLEFYPCTSEEIDHEDITKDKTSTVEACLPLELTKNESCLNSRETSFITNGSSLASRKTSFMMALCLSSIYEDLKMYQVEFKTMNAKLLMDPKRQIFLDQNMLAVIDELMQALNFNSETVPQKSSLEEPDFYKTKIKLCILLHAFRIRAVTIDRVMSYLNAS | 0.04
10 | IL-12p70 Y17A (protein) chain 1: MIWELKKDVYVVELDWAPDAPGEMVVLTCDTPEEDGITWTLDQSSEVLGSGKTLTIQVKEFGDAGQYTCHKGGEVLSHSLLLLHKKEDGIWSTDILKDQKEPKNKTFLRCEAKNYSGRFTCWWLTTISTDLTFSVKSSRGSSDPQGVTCGAATLSAERVRGDNKEYEYSVECQEDSACPAAEESLPIEVMVDAVHKLKYENYTSSFFIRDIIKPDPPKNLQLKPLKNSRQVEVSWEYPDTWSTPHSYFSLTFSVQVQGKSKREKKDRVFTDKTSATVICRKNASISVRAQDRYYSSSWSEWASVPCSGGGSHHHHHH chain 2: MRNLPVATPDPGMFPSLHHSQNLLRAVSNMLQKARQTLEFYPCTSEEIDHEDITKDKTSTVEACLPLELTKNESCLNSRETSFITNGSSLASRKTSFMMALCLSSIYEDLKMYQVEFKTMNAKLLMDPKRQIFLDQNMLAVIDELMQALNFNSETVPQKSSLEEPDFYKTKIKLCILLHAFRIRAVTIDRVMSYLNAS | 0.07
11 | IL-12p70 D42A (protein) chain 1: MIWELKKDVYVVELDWYPDAPGEMVVLTCDTPEEDGITWTLAQSSEVLGSGKTLTIQVKEFGDAGQYTCHKGGEVLSHSLLLLHKKEDGIWSTDILKDQKEPKNKTFLRCEAKNYSGRFTCWWLTTISTDLTFSVKSSRGSSDPQGVTCGAATLSAERVRGDNKEYEYSVECQEDSACPAAEESLPIEVMVDAVHKLKYENYTSSFFIRDIIKPDPPKNLQLKPLKNSRQVEVSWEYPDTWSTPHSYFSLTFSVQVQGKSKREKKDRVFTDKTSATVICRKNASISVRAQDRYYSSSWSEWASVPCSGGGSHHHHHH chain 2: MRNLPVATPDPGMFPSLHHSQNLLRAVSNMLQKARQTLEFYPCTSEEIDHEDITKDKTSTVEACLPLELTKNESCLNSRETSFITNGSSLASRKTSFMMALCLSSIYEDLKMYQVEFKTMNAKLLMDPKRQIFLDQNMLAVIDELMQALNFNSETVPQKSSLEEPDFYKTKIKLCILLHAFRIRAVTIDRVMSYLNAS | 0.07
